Literature values in PMC8959454.

Key:
CKAP4 ECD (Homo sapiens) = CKAP4 ECD (Homo sapiens) (UniProt Q07065)
LRP6 (Homo sapiens) = LRP6 (Homo sapiens) (UniProt O75581)
UniProt O75581, sequence (O75581 20-1370): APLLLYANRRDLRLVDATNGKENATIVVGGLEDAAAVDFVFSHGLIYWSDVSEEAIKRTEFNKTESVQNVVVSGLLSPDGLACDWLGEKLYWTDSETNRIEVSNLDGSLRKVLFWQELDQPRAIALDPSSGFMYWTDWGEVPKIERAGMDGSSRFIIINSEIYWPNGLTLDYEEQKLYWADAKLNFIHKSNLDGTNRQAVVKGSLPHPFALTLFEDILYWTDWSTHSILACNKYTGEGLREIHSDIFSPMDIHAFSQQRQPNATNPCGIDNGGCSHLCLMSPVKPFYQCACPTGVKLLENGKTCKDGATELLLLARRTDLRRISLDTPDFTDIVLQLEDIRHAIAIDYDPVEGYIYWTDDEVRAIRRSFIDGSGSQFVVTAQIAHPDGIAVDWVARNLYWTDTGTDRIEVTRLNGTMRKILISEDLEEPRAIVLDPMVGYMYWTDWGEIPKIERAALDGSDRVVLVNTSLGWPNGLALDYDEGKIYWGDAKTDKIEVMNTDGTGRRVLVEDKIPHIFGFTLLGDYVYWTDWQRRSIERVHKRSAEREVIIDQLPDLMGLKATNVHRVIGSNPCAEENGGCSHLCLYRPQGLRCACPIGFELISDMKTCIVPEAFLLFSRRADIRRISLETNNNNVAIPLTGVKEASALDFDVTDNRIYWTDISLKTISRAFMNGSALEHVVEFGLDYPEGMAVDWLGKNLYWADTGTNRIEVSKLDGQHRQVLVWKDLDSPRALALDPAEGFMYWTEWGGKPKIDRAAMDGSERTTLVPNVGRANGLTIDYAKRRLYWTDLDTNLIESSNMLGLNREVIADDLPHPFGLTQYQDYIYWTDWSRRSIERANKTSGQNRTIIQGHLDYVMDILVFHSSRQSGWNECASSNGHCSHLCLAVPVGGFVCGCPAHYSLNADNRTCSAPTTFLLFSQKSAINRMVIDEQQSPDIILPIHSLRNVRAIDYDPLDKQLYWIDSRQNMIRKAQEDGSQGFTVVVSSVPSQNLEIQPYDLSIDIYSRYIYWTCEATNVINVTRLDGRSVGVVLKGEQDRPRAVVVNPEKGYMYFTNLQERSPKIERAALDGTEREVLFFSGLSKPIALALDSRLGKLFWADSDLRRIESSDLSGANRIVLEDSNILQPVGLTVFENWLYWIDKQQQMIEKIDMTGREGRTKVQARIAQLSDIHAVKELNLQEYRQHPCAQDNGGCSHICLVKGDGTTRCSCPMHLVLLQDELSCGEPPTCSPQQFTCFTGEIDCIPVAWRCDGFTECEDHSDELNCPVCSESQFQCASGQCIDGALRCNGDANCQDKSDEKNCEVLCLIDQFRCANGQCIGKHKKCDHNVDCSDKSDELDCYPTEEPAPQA

UniProt Q07065, sequence (Q07065 128-602): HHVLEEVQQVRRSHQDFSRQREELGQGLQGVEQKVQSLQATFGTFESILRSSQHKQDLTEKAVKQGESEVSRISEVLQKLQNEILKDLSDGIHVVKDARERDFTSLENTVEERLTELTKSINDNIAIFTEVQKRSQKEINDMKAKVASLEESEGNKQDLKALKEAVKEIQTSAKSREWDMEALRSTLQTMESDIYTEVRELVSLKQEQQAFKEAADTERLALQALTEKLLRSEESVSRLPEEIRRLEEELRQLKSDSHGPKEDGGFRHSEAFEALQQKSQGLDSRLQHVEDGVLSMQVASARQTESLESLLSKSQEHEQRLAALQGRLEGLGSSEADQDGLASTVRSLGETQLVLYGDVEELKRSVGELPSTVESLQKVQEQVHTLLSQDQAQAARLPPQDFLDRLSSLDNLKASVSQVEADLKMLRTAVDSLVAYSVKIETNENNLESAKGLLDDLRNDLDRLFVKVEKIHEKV

**Q.** Which results are given for DKK1 (from UniProt O94907)?
**A.** Kd (CKAP4 ECD (Homo sapiens)): 420 pM; Kd (LRP6 (Homo sapiens)): 420 pM
